T1: PlGF (UniProt P49763-2 21-149, limits assumed)
T1 construct: bought antigen coated on the ELISA plate; also called Placental GF
T1 sequence (looked up): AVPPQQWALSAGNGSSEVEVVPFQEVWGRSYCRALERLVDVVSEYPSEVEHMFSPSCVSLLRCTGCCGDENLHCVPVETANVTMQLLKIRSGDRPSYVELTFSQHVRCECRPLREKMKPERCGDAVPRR

T2: Placental GF (UniProt P49763-2 21-149, limits assumed)
T2 construct: Bought reagent; also called PlGF; PLGF
T2 sequence (looked up): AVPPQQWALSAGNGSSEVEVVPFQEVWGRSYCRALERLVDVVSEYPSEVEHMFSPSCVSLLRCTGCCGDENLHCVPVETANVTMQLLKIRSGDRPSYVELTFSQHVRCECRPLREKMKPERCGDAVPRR


Tests used:
[1] = target: T3, DLL4 ECD/His tag (R&D 1506-D4-050) (UniProt Q9NR61 27-529); experiment: direct bind ELISA, DLL4 on plate; DLL4 VD C-term.; HC Short, LC Short
T3 construct: extracellular domain; Bought antigen coated on the ELISA plate; not shown: His tag

[2] = target: T4, ErbB3 (ErbB3/FC Chimera-His tag) (UniProt P21860 20-643, limits assumed); experiment: SPR (Biacore); parent antibody
T4 construct: extracellular domain
Description: (§1) The BIACORE assay (Biacore, Inc, Piscataway, N.J.) determines the affinity of antibodies or DVD-Ig with kinetic measurements of on-rate and off-rate constants. Binding of antibodies or DVD-Ig to a target antigen (for example, a purified recombinant target antigen) is determined by surface plasmon resonance-based measurements with a Biacore® 1000 or 3000 instrument (Biacore® AB, Uppsala, Sweden) using running HBS-EP (10 mM HEPES [pH 7.4], 150 mM NaCl, 3 mM EDTA, and 0.005% surfactant P20) at 25° C. […] For example, approximately 5000 RU of goat anti-mouse IgG, (Fcγ), fragment specific polyclonal antibody (Pierce Biotechnology Inc, Rockford, Ill.) diluted in 10 mM sodium acetate (pH 4.5) is directly immobilized across a CM5 research grade biosensor chip using a standard amine coupling kit according to manufacturer's instructions and procedures at 25 μg/ml. Unreacted moieties on the biosensor surface are blocked with ethanolamine. Modified carboxymethyl dextran surface in flowcell 2 and 4 is used as a reaction surface. Unmodified carboxymethyl dextran without goat anti-mouse IgG in flow cell 1 and 3 is used as the reference surface. For kinetic analysis, rate equations derived from the 1:1 Langmuir binding model are fitted simultaneously to association and dissociation phases of all eight injections (using global fit analysis) with the use of Biaevaluation 4.0.1 software. Purified antibodies or DVD-Ig are diluted in HEPES-buffered saline for capture across goat anti-mouse IgG specific reaction surfaces. Antibodies or DVD-Ig to be captured as a ligand (25 μg/ml) are injected over reaction matrices at a flow rate of 5 μl/min. The association and dissociation rate constants, kₒₙ (M⁻¹s⁻¹) and koff (s⁻¹) are determined under a continuous flow rate of 25 μl/min. Rate constants are derived by making kinetic binding measurements at different antigen concentrations ranging from 10-200 nM. The equilibrium dissociation constant (M) of the reaction between antibodies or DVD-Igs and the target antigen is then calculated from the kinetic rate constants by the following formula: KD=koff/kₒₙ. Binding is recorded as a function of time and kinetic rate constants are calculated.

[3] = target: T5, VEGF (UniProt P15692 27-191, limits assumed); experiment: direct bind ELISA, C-terminal VD
T5 construct: bought antigen coated on the ELISA plate
T5 sequence (P15692 other isoform, or with tags, fused parts or gaps limits assumed): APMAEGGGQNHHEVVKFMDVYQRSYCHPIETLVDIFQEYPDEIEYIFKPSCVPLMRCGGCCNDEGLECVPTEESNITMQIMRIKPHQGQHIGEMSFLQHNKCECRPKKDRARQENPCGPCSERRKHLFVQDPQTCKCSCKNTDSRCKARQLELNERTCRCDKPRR
Description: Enzyme Linked Immunosorbent Assays to screen for antibodies that bind a desired target antigen were performed as follows. […] Plates were washed four times with PBS containing 0.02% Tween 20. Plates were blocked by the addition of 300 μL/well blocking solution (non-fat dry milk powder, various retail suppliers, diluted to 2% in PBS) for ½ hour at room temperature. Plates were washed four times after blocking with PBS containing 0.02% Tween 20.
Plates were washed 4 times with PBS containing 0.02% Tween 20.

[4] = target: T1, PlGF; experiment: direct bind ELISA, N-terminal VD
[5] = target: T2, Placental GF; experiment: Biacore SPR
Description: as §1

EC50 [1] [nM] | EC50 [3] [nM] | EC50 [4] [nM] | Binder | also measured
2.28 |  |  | DVD468 (bispecific antibody, human IgG1, kappa, DVD-Ig; outer AB071 (VEGF), inner AB015 (DLL4); HC short, LC short linker; also called DVD468H; DVD468L) heavy: not shown light: DIQMTQSPSSLSASVGDRVTITCRASQVIRRSLAWYQQKPGKAPKLLIYAASNLASGVPSRFSGSGSGTDFTLTISSLQPEDFATYYCQQSNTSPLTFGQGTKVEIKRTVAAPDIQMTQSPSSLSASVGDRVTITCRASQDVSTAVAWYQQKPGKAPKLLIYSASFLYSGVPSRFSGSGSGTDFTLTISSLQPEDFATTYYCQQSYTGTVTFGQGTKVEIKRTVAAPSVFIFPPSDEQLKSGTASVVCLLNNFYPREAKVQWKVDNALQSGNSQESVTEQDSKDSTYSLSSTLTLSKADYEKHKVYACEVTHQGLSSPVTKSFNRGEC | 
 |  |  | AB062 (antibody, human IgG1, kappa, V domains shown, also called AB062VH; AB062VL) VH: QVQLQQWGAGLLKPSETLSLTCAVYGGSFSGYYWSWIRQPPGKGLEWIGEINHSGSTNYNPSLKSRVTISVETSKNQFSLKLSSVTAADTAVYYCARDKWTWYFDLWGRGTLVTVSS VL: not shown | Kd [2]: 1.36 nM; koff [2]: 0.000117 s⁻¹; kon [2]: 86600 M⁻¹ s⁻¹
 | 1120 | 0.14 | DVD543 (bispecific antibody, human IgG1, kappa, HC linker short, LC linker short; also called DVD-Ig DVD543) heavy: not shown light: AIQMTQSSSSFSVSLGDRVTITCKASEDIYNRFAWYQQKPGNAPRLLISGAASLEAGVPSRFSGSGSGQDYTLSITSLQTEDVATYYCQQYWSTPWTFGGGTKLEIKRTVAAPDIQMTQSPSSLSASVGDRVTITCRASQDVSTAVAWYQQKPGKAPKLLIYSASFLYSGVPSRFSGSGSGTDFTLTISSLQPEDFATYYCQQSYTTPPTFGQGTKVEIKRTVAAPSVFIFPPSDEQLKSGTASVVCLLNNFYPREAKVQWKVDNALQSGNSQESVTEQDSKDSTYSLSSTLTLSKADYEKHKVYACEVTHQGLSSPVTKSFNRGEC | 
 | 39.2 | 0.13 | DVD559 (bispecific antibody, human IgG1, kappa, HC linker long, LC linker short; also called DVD-Ig DVD559) heavy: not shown light: AIQMTQSSSSFSVSLGDRVTITCKASEDIYNRFAWYQQKPGNAPRLLISGAASLEAGVPSRFSGSGSGQDYTLSITSLQTEDVATYYCQQYWSTPWTFGGGTKLEIKRTVAAPDIQMTQSPSSLSASVGDRVTITCRASQDVSTAVAWYQQKPGKAPKLLIYSASFLYSGVPSRFSGSGSGTDFTLTISSLQPEDFATYYCQQSYTTPPTFGQGTKVEIKRTVAAPSVFIFPPSDEQLKSGTASVVCLLNNFYPREAKVQWKVDNALQSGNSQESVTEQDSKDSTYSLSSTLTLSKADYEKHKVYACEVTHQGLSSPVTKSFNRGEC | 
 |  |  | AB063 (antibody, human IgG1, kappa, V domains shown, also called AB063VH; AB063VL) VH: EVQLVESGGGLVQPGGSLRLSCAASGFTFSIYSMNWVRQAPGKGLEWVSYISSSSSTIYYADSVKGRFTISRDNAKNSLYLQMNSLRDEDTAVYYCARDRGDFDAFDIWGQGTMVTVSS VL: DIQMTQSPSSLSASVGDRVTITCQASQDITNYLNWYQQKPGKAPKLLIYDASNLETGVPSRFSGSGSGTDFTFTISSLQPEDIATYNCQQCENFPITFGQGTRLEIKR | Kd [2]: 0.15 nM; koff [2]: 0.000175 s⁻¹; kon [2]: 1.17e+06 M⁻¹ s⁻¹
 | 1590 | 97 | DVD551 (bispecific antibody, human IgG1, kappa, HC linker long, LC linker long; also called DVD-Ig DVD551) heavy: not shown light: AIQMTQSSSSFSVSLGDRVTITCKASEDIYNRFAWYQQKPGNAPRLLISGAASLEAGVPSRFSGSGSGQDYTLSITSLQTEDVATYYCQQYWSTPWTFGGGTKLEIKRTVAAPSVFIFPPDIQMTQSPSSLSASVGDRVTITCRASQDVSTAVAWYQQKPGKAPKLLIYSASFLYSGVPSRFSGSGSGTDFTLTISSLQPEDFATYYCQQSYTTPPTFGQGTKVEIKRTVAAPSVFIFPPSDEQLKSGTASVVCLLNNFYPREAKVQWKVDNALQSGNSQESVTEQDSKDSTYSLSSTLTLSKADYEKHKVYACEVTHQGLSSPVTKSFNRGEC | 
 | 560 | 0.32 | DVD583 (bispecific antibody, human IgG1, kappa, outer AB047 (PlGF), inner AB071 (VEGF); HC linker long, LC linker long; also called DVD-Ig DVD583) heavy: not shown light: DIVLTQSPDSLAVSLGERVTMNCKSSQSLLNSGMRKSFLAWYQQKPGQSPKLLIYWASTRESGVPDRFTGSGSGTDFTLTISSVQAEDVAVYYCKQSYHLFTFGSGTKLEIKRTVAAPSVFIFPPDIQMTQSPSSLSASVGDRVTITCRASQVIRRSLAWYQQKPGKAPKLLIYAASNLASGVPSRFSGSGSGTDFTLTISSLQPEDFATYYCQQSNTSPLTFGQGTKVEIKRTVAAPSVFIFPPSDEQLKSGTASVVCLLNNFYPREAKVQWKVDNALQSGNSQESVTEQDSKDSTYSLSSTLTLSKADYEKHKVYACEVTHQGLSSPVTKSFNRGEC | 
4.33 |  |  | DVD516 (bispecific antibody, human IgG1, lambda, DVD-Ig; outer AB071 (VEGF), inner AB073 (DLL4); HC short, LC short linker; also called DVD516H; DVD516L) heavy: not shown light: DIQMTQSPSSLSASVGDRVTITCRASQVIRRSLAWYQQKPGKAPKLLIYAASNLASGVPSRFSGSGSGTDFTLTISSLQPEDFATYYCQQSNTSPLTFGQGTKVEIKRTVAAPQAVVTQESALTTSPGETVTLTCRSSTGAVTTSNYANWVQEKPDHLFTGLIGGTNNRAPGVPARFSGSLIGDKAALTITGAQTEDEAIYFCALWYSNHWVFGGGTKLTVLGQPKAAPSVTLFPPSSEELQANKATLVCLISDFYPGAVTVAWKADSSPVKAGVETTTPSKQSNNKYAASSYLSLTPEQWKSHRSYSCQVTHEGSTVEKTVAPTECS | 
0.67 |  |  | DVD043 (bispecific antibody, human IgG1, kappa, DVD-Ig; HC short, LC short linker; also called DVD043H; DVD043L) heavy: not shown light: DIQMTQSPSSLSASVGDRVTITCSASQDISNYLNWYQQKPGKAPKVLIYFTSSLHSGVPSRFSGSGSGTDFTLTISSLQPEDFATYYCQQYSTVPWTFGQGTKVEIKRTVAAPDIQMTQSPSSLSASVGDRVTITCRASQDVSTAVAWYQQKPGKAPKLLIYSASFLYSGVPSRFSGSGSGTDFTLTISSLQPEDFATTYYCQQSYTGTVTFGQGTKVEIKRTVAAPSVFIFPPSDEQLKSGTASVVCLLNNFYPREAKVQWKVDNALQSGNSQESVTEQDSKDSTYSLSSTLTLSKADYEKHKVYACEVTHQGLSSPVTKSFNRGEC | 
 | 35.9 | 0.39 | DVD581 (bispecific antibody, human IgG1, kappa, HC linker long, LC linker long; also called DVD-Ig DVD581) heavy: not shown light: DIVLTQSPDSLAVSLGERVTMNCKSSQSLLNSGMRKSFLAWYQQKPGQSPKLLIYWASTRESGVPDRFTGSGSGTDFTLTISSVQAEDVAVYYCKQSYHLFTFGSGTKLEIKRTVAAPSVFIFPPDIQMTQSPSSLSASVGDRVTITCRASQDVSTAVAWYQQKPGKAPKLLIYSASFLYSGVPSRFSGSGSGTDFTLTISSLQPEDFATYYCQQSYTTPPTFGQGTKVEIKRTVAAPSVFIFPPSDEQLKSGTASVVCLLNNFYPREAKVQWKVDNALQSGNSQESVTEQDSKDSTYSLSSTLTLSKADYEKHKVYACEVTHQGLSSPVTKSFNRGEC | 
13.9 |  |  | DVD446 (bispecific antibody, human IgG1, kappa, DVD-Ig; outer AB071 (VEGF), inner AB069 (DLL4); HC short, LC short linker; also called DVD446H; DVD446L) heavy: not shown light: DIQMTQSPSSLSASVGDRVTITCRASQVIRRSLAWYQQKPGKAPKLLIYAASNLASGVPSRFSGSGSGTDFTLTISSLQPEDFATYYCQQSNTSPLTFGQGTKVEIKRTVAAPDIVMTQSPDSLAVSLGERATISCRASESVDNYGISFMKWFQQKPGQPPKLLIYAASNQGSGVPDRFSGSGSGTDFTLTISSLQAEDVAVYYCQQSKEVPWTFGGGTKVEIKRTVAAPSVFIFPPSDEQLKSGTASVVCLLNNFYPREAKVQWKVDNALQSGNSQESVTEQDSKDSTYSLSSTLTLSKADYEKHKVYACEVTHQGLSSPVTKSFNRGEC | 
1.77 |  |  | DVD492 (bispecific antibody, human IgG1, kappa, DVD-Ig; outer AB071 (VEGF), inner AB072 (DLL4); HC short, LC short linker; also called DVD492H; DVD492L) heavy: not shown light: DIQMTQSPSSLSASVGDRVTITCRASQVIRRSLAWYQQKPGKAPKLLIYAASNLASGVPSRFSGSGSGTDFTLTISSLQPEDFATYYCQQSNTSPLTFGQGTKVEIKRTVAAPDIQMTQSSSYLSVSLGGRVTITCKASDHINNWLAWYQQKPGNAPRLLISGATSLETGVPSRFSGSGSGKDYTLSITSLQTEDVATYYCQQYWSIPLTFGAGTKLELKRTVAAPSVFIFPPSDEQLKSGTASVVCLLNNFYPREAKVQWKVDNALQSGNSQESVTEQDSKDSTYSLSSTLTLSKADYEKHKVYACEVTHQGLSSPVTKSFNRGEC | 
 |  |  | DVD258 (bispecific antibody, human IgG1, kappa, N-terminal VD PlGF, C-terminal VD DLL4; also called VD258H; VD258L) heavy: not shown light: DIVLTQSPDSLAVSLGERVTMNCKSSQSLLNSGMRKSFLAWYQQKPGQSPKLLIYWASTRESGVPDRFTGSGSGTDFTLTISSVQAEDVAVYYCKQSYHLFTFGSGTKLEIKRTVAAPDIQMTQSPSSLSASVGDRVTITCRASQDVSTAVAWYQQKPGKAPKLLIYSASFLYSGVPSRFSGSGSGTDFTLTISSLQPEDFATTYYCQQSYTGTVTFGQGTKVEIKRTVAAPSVFIFPPSDEQLKSGTASVVCLLNNFYPREAKVQWKVDNALQSGNSQESVTEQDSKDSTYSLSSTLTLSKADYEKHKVYACEVTHQGLSSPVTKSFNRGEC | Kd [5]: < 0.254 nM; koff [5]: 0.00254 s⁻¹; kon [5]: > 1e+07 M⁻¹ s⁻¹
 | 241 | 1.04 | DVD561 (bispecific antibody, human IgG1, kappa, outer AB074 (PlGF), inner AB071 (VEGF); HC linker long, LC linker short; also called DVD-Ig DVD561) heavy: not shown light: AIQMTQSSSSFSVSLGDRVTITCKASEDIYNRFAWYQQKPGNAPRLLISGAASLEAGVPSRFSGSGSGQDYTLSITSLQTEDVATYYCQQYWSTPWTFGGGTKLEIKRTVAAPDIQMTQSPSSLSASVGDRVTITCRASQVIRRSLAWYQQKPGKAPKLLIYAASNLASGVPSRFSGSGSGTDFTLTISSLQPEDFATYYCQQSNTSPLTFGQGTKVEIKRTVAAPSVFIFPPSDEQLKSGTASVVCLLNNFYPREAKVQWKVDNALQSGNSQESVTEQDSKDSTYSLSSTLTLSKADYEKHKVYACEVTHQGLSSPVTKSFNRGEC | 
1.71 |  |  | DVD512 (bispecific antibody, human IgG1, lambda, L234A L235A, DVD-Ig; HC short, LC short linker; also called DVD512H; DVD512L) heavy: not shown light: DIQMTQSPSSLSASVGDRVTITCSASQDISNYLNWYQQKPGKAPKVLIYFTSSLHSGVPSRFSGSGSGTDFTLTISSLQPEDFATYYCQQYSTVPWTFGQGTKVEIKRTVAAPQAVVTQESALTTSPGETVTLTCRSSTGAVTTSNYANWVQEKPDHLFTGLIGGTNNRAPGVPARFSGSLIGDKAALTITGAQTEDEAIYFCALWYSNHWVFGGGTKLTVLGQPKAAPSVTLFPPSSEELQANKATLVCLISDFYPGAVTVAWKADSSPVKAGVETTTPSKQSNNKYAASSYLSLTPEQWKSHRSYSCQVTHEGSTVEKTVAPTECS | 

Source: patent US20100260668A1 (published 2010)
